Experiments:
NSC-34 cells [1] = assay: BSSG-induced toxicity in NSC-34 and NSC-34-hPGRN cells (MTT); type: cell-based
Protocol: Normal NSC-34 and a stable NSC-34 transfectant that over expressed human PGRN (NSC-34-hPGRN) NCS34 were maintained in culture using DMEM supplemented with 5% (v/v) fetal calf serum (FCS). Cells were aliquoted in 96-well plates at a density of 8,000 cells/well in 200 uL of DMEM 5% FCS.d After two hours the neurotoxin Beta-sitosteryl glucoside (BSSG) was added at concentrations of 0, 100, 250, 500, 1000 and 2500 ng/mL with a final culture volume of 250 uL along with 0.1% (v/v) DMSO throughout. As a negative control for cell proliferation/survival, a series of wells were washed and media replaced with DMEM containing no FCS. Following 72 hours cell viability was measured using the MTT assay (Vybrant MTT Cell proliferation Assay; Invitrogen) according to manufacturer's instructions.
To determine if PGRN was capable of protecting NSC-34 cells against BSSG neurotoxicity a stable transfectant was developed to over express human PGRN constitutively.

PC12 cells = assay: Protection against MPTP toxicity in PC12 cells (MTT); type: cell-based; settings: 4 nM progranulin 24 h pretreatment; 0-1000 μM MPTP 24 h
Protocol: PC12 cells were grown on collagen-coated 96-well plates, in Dulbecco's minimal essential medium (DMEM) in the presence of 10% fetal calf serum (FCS) supplemented with glutamine, penicillin and streptomycin. One day after plating (at 60-70% confluence, 40,000 cells/well), the growth medium was replaced by low-serum (2% FCS) medium with 4 nM progranulin (PGRN+) or without progranulin (PGRN−) (FIG. 19). […] 43(5-6):155-158 (2007)]

rat motor neurons = settings: literature (Van Damme et al.); cited from earlier work
NSC-34 cells [2] = assay: NSC-34 serum deprivation with hPGRN protein (Alamar Blue); type: cell-based; settings: hPGRN 100 ng/ml, Day 4, Alamar Blue
Protocol: Normal NSC-34 cells were maintained in culture using DMEM supplemented with 5% (v/v) fetal calf serum (FCS). Cells were aliquoted in 96-well plates at a density of 6,000 cells/well in 200 uL of DMEM 5% FCS. After 2 hours of culture (to ensure cell adhesion) media was removed, cells washed 1× with PBS and DMEM serum free medium with or without hPGRN (100 ng/ml) added to the cells. Following one and four days of culture remaining metabolically active cells were detected using the Alamar Blue® methodology (Molecular Probes/Invitrogen) following the manufacturer's instructions.

B1: Progranulin: growth factor-like protein; human progranulin SEQ ID NO: 2 (protein, listed as Homo sapiens)
chain: MWTLVSWVALTAGLVAGTRCPDGQFCPVACCLDPGGASYSCCRPLLDKWPTTLSRHLGGPCQVDAHCSAGHSCIFTVSGTSSCCPFPEAVACGDGHHCCPRGFHCSADGRSCFQRSGNNSVGAIQCPDSQFECPDFSTCCVMVDGSWGCCPMPQASCCEDRVHCCPHGAFCDLVHTRCITPTGTHPLAKKLPAQRTNRAVALSSSVMCPDARSRCPDGSTCCELPSGKYGCCPMPNATCCSDHLHCCPQDTVCDLIQSKCLSKENATTDLLTKLPAHTVGDVKCDMEVSCPDGYTCCRLQSGAWGCCPFTQAVCCEDHIHCCPAGFTCDTQKGTCEQGPHQVPWMEKAPAHLSLPDPQALKRDVPCDNVSSCPSSDTCCQLTSGEWGCCPIPEAVCCSDHQHCCPQGYTCVAEGQCQRGSEIVAGLEKMPARRASLSHPRDIGCDQHTSCPVGQTCCPSLGGSWACCQLPHAVCCEDRQHCCPAGYTCNVKARSCEKEVVSAQPATFLARSPHVGVKDVECGEGHFCHDNQTCCRDNRQGWACCPYRQGVCCADRRHCCPAGFRCAARGTKCLRREAPRWDAPLRDPALRQLL
NSC-34 cells [1]; PGRN over expression, 72 hours, no FCS
  cell survival in serum free cultures (MTT): increased cell survival
NSC-34 cells [1]; stable transfectant over expressing human PGRN, 72 hour, 1000 and 2500 ng/mL BSSG
  protection against BSSG neurotoxicity (MTT): protected NSC-34 cells
PC12 cells
  cell viability against MPTP (MTT): protective effect
Rat motor neurons
  survival of rat motor neurons under serum deprivation: increased survival of rat motor neurons
NSC-34 cells [2]
  increase in cell survival following serum starvation: 2.5 fold

— patent US20220265770A1, “TREATING NEURODEGENERATIVE DISEASES WITH PROGRANULIN” (NEURODYN, INC., priority 2008, published 2022)
